The target of experiment [1] is T1, aggregated SOD1 (UniProt P00441 2-154).
T1 construct: Same protein as Dim SOD1, in a different conformational state; also called Agg SOD1
The experiment is described as follows: indirect ELISA; OD on aggregated SOD1 over OD on dimeric SOD1. Background: ELISA stands for enzyme-linked immunosorbent assay.
Description: (§1) Supernatants producing hybridoma cell cultures producing rabbit monoclonal antibodies are analyzed by indirect ELISA for antibody activity on plates coated with 1 μg/well of peptide or protein antigen. […] The binding of anti-SOD1 antibodies were also characterized by ratio analyzes.

Experiment [2] concerns the target T1, aggregated SOD1. Put plainly: indirect ELISA; ratio of the EC50 values on aggregated and dimeric SOD1.
Description: as §1

Experimental findings from US20260232840A1 (UNIVERSITY OF BRITISH COLUMBIA, published 2026) are described below.

T1 sequence (P00441 2-154 limits assumed): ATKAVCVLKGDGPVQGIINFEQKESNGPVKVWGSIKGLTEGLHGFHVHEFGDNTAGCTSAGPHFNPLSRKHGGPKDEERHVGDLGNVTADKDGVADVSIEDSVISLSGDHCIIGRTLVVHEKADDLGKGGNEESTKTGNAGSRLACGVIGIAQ

B1: rabbit anti-SOD1 antibody A-7-63 H2/L1 (antibody)
heavy: QSVGESGGGLVTPGTPLTLTCTVSGFSLSSYGVSWVRQAPGKGLEYIGFISTRGNPYYASWAKGRFTISKTSTTVDLKITSPTTEDTATYFCAGATVVGDSIWGPGTLVTVSSGQPKAPSVFPLAPCCGDTPSSTVTLGCLVKGYLPEPVTVTWNSGTLTNGVRTFPSVRQSSGLYSLSSVVSVTSSSQPVTCNVAHPATNTKVDKTVAPSTCSKPTCPPPELLGGPSVFIFPPKPKDTLMISRTPEVTCVVVDVSQDDPEVQFTWYINNEQVRTARPPLREQQFNSTIRVVSTLPIAHQDWLRGKEFKCKVHNKALPAPIEKTISKARGQPLEPKVYTMGPPREELSSRSVSLTCMINGFYPSDISVEWEKNGKAEDNYKTTPAVLDSDGSYFLYSKLSVPTSEWQRGDVFTCSVMHEALHNHYTQKSISRSPGK
light: QVLTQTASSVSAAVGGTVTISCQSSQSVYKGYWQAWYQQKPGQPPKLLIYETSTLASGVPSRFSGSGSGTQFTLTISGVQCDDAATYYCAGGYSNNIYTFGGGTEVVVKGDPVAPTVLIFPPAADQVATGTVTIVCVANKYFPDVTVTWEVDGTTQTTGIENSKTPQNSADCTYNLSSTLTLTSTQYNSHKEYTCKVTQGTTSVVQSFNRGDC
notes: Rabbit monoclonal antibody; also called A-63 H2 + A-63 L1
B1: in experiment [1], the “Ab conc (ng/mL) at peak agg/dim OD ratio” value stood at 6.01 ng/mL and the “Peak agg/dim OD ratio” value came to 10.7. Further, in experiment [2], the “Ratio Agg/Dim SOD1 EC50” value was found to be 26.7.

B2: rabbit anti-SOD1 antibody A-7-63 H3/L1 (antibody)
heavy: QSVEESGGGLVTPGTPLTLTCTVSGFSLSSYGVSWVRQAPGKGLEYIGFISTRGNPYYASWAKGRFTISKTSTTVDLKITSPTTEDTATYFCAGATVVGDSIWGPGTLVTVSSGQPKAPSVFPLAPCCGDTPSSTVTLGCLVKGYLPEPVTVTWNSGTLTNGVRTFPSVRQSSGLYSLSSVVSVTSSSQPVTCNVAHPATNTKVDKTVAPSTCSKPTCPPPELLGGPSVFIFPPKPKDTLMISRTPEVTCVVVDVSQDDPEVQFTWYINNEQVRTARPPLREQQFNSTIRVVSTLPIAHQDWLRGKEFKCKVHNKALPAPIEKTISKARGQPLEPKVYTMGPPREELSSRSVSLTCMINGFYPSDISVEWEKNGKAEDNYKTTPAVLDSDGSYFLYSKLSVPTSEWQRGDVFTCSVMHEALHNHYTQKSISRSPGK
light: QVLTQTASSVSAAVGGTVTISCQSSQSVYKGYWQAWYQQKPGQPPKLLIYETSTLASGVPSRFSGSGSGTQFTLTISGVQCDDAATYYCAGGYSNNIYTFGGGTEVVVKGDPVAPTVLIFPPAADQVATGTVTIVCVANKYFPDVTVTWEVDGTTQTTGIENSKTPQNSADCTYNLSSTLTLTSTQYNSHKEYTCKVTQGTTSVVQSFNRGDC
notes: Rabbit monoclonal antibody; also called A-63 H3 + A-63 L1
Take B2: in experiment [1], the “Ab conc (ng/mL) at peak agg/dim OD ratio” value was 5.11 ng/mL and the “Peak agg/dim OD ratio” value was 11.6. In addition, the “Ratio Agg/Dim SOD1 EC50” value in experiment [2] worked out at 32.8.

B3: rabbit anti-SOD1 antibody A-7-58 H1/L1 (antibody, V domains shown)
VH: QSVEESGGRLVTPGTPLTLTCTVSGIDLSSSVMAWVRQAPGKGLEWIGIITNRGNRYYAKWAKGRFTISRTSTTVGLKITSPTTADTATYFCGRGSVWGPGTLVTVSS
VL: QVLTQTPASVSAAIGGTVTIKCQSSQSFLDDNDLAWYQKKPGRPPKRLIKSASTLDSGVPSRFSGSGSGTQFTLTISDVQCADAATYYCLGDYDCSVGDCSAFGGGTEVVVKG
notes: Rabbit monoclonal antibody; also called A-58 H1 + A-58 L1
Regarding B3, in experiment [1], the “Ab conc (ng/mL) at peak agg/dim OD ratio” value was 10.3 ng/mL and the “Peak agg/dim OD ratio” value was 12.7. Besides, the “Ratio Agg/Dim SOD1 EC50” value in experiment [2] was determined as 30.4.
